The values that follow come from publication PMC3761943 (Cell, 2013).

As usually defined, the Kd is a measure of binding affinity in units of concentration. A higher Kd goes with lower affinity. The stoichiometry N is the number of molecules, sites or subunits per partner or assembly.

In assay [1] the target is T1, kinesin-4ΔN (human kinesin-4, aa 733-1232) (human, UniProt O95239 733-1232).
T1 sequence (looked up): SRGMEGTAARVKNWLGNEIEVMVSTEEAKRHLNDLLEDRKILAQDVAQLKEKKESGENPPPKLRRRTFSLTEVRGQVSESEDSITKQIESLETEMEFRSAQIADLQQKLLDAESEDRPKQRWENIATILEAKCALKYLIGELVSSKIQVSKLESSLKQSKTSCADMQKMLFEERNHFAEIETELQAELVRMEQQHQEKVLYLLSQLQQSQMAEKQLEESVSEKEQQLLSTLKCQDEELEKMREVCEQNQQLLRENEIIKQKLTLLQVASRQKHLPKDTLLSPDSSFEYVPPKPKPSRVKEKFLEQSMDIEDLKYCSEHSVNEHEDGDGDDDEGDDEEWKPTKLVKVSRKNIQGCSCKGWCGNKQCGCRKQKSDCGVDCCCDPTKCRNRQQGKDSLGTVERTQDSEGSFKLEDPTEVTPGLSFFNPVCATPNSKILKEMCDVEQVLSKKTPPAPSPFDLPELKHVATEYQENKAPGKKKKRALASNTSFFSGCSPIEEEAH
Nature of the assay: pull-down.

The target in assay [2] is T2, kinesin-4-GFP (human full-length kinesin-4, GFP-labeled) (human), O95239.
T2 chain: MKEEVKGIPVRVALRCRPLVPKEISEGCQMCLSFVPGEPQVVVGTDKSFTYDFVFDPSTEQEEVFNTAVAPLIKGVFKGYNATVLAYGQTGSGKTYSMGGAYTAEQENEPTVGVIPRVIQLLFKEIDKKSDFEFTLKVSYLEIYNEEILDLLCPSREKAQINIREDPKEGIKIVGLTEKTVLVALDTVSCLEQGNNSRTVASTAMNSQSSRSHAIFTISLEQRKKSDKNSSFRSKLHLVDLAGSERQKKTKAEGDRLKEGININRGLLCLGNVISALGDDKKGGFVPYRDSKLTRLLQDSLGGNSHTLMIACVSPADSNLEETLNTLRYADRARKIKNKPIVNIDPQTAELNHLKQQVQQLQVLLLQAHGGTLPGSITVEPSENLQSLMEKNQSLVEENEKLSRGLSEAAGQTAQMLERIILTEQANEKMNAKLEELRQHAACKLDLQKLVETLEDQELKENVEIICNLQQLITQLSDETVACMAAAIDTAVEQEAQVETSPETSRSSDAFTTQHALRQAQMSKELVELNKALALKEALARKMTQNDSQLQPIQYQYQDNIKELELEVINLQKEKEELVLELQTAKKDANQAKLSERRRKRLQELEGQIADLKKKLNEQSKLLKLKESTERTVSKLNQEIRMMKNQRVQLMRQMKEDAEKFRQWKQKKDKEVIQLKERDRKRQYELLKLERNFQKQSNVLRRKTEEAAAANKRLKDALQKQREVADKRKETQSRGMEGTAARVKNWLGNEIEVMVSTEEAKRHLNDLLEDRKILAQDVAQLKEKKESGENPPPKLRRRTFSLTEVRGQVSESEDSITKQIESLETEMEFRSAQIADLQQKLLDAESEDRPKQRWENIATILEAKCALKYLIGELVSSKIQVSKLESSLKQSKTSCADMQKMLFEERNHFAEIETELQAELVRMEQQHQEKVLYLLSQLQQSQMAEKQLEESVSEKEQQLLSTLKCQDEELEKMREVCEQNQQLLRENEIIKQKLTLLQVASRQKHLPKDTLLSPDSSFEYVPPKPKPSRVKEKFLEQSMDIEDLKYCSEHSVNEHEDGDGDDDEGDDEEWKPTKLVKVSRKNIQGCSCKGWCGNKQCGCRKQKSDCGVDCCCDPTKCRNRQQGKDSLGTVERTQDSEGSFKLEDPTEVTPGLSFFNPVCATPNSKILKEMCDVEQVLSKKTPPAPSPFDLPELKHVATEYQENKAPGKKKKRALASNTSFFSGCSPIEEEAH
The experiment in a line: single-molecule fluorescence intensity analysis. As to conditions: remark: other sources report otherwise.

The target in assay [3] is T3, kinesin-4 (human full-length, unlabeled) (human, UniProt O95239 1-1232).
T3 sequence (looked up): T2 chain
The experiment in a line: TIRF microscopy, end-tag formation on immobilized microtubules.

B1: PRC1NSΔC3 (human PRC1, aa 1-168) (domain or fragment, UniProt O43663 1-168, looked up)
chain: MRRSEVLAEESIVCLQKALNHLREIWELIGIPEDQRLQRTEVVKKHIKELLDMMIAEEESLKERLIKSISVCQKELNTLCSELHVEPFQEEGETTILQLEKDLRTQVELMRKQKKERKQELKLLQEQDQELCEILCMPHYDIDSASVPSLEELNQFRQHVTTLRETKA
In assay [1], B1 returned a Kd of 1200 ± 400 nM.

B2: kinesin-4-GFP (human full-length kinesin-4, GFP-labeled), O95239 1-1232 (natural protein)
chain: T2 chain
Regarding B2, the stoichiometry N in assay [2] was found to be 2.

B3: PRC1NSΔC4 (human PRC1, aa 1-231) (domain or fragment, UniProt O43663 1-231, looked up)
chain: MRRSEVLAEESIVCLQKALNHLREIWELIGIPEDQRLQRTEVVKKHIKELLDMMIAEEESLKERLIKSISVCQKELNTLCSELHVEPFQEEGETTILQLEKDLRTQVELMRKQKKERKQELKLLQEQDQELCEILCMPHYDIDSASVPSLEELNQFRQHVTTLRETKASRREEFVSIKRQIILCMEALDHTPDTSFERDVVCEDEDAFCLSLENIATLQKLLRQLEMQKSQ
Consider B3, for which the affinity in assay [1], expressed as Kd, was 300 ± 40 nM.

B4: PRC1NSΔC (human PRC1, aa 1-486) (domain or fragment, UniProt O43663 1-486, looked up)
chain: MRRSEVLAEESIVCLQKALNHLREIWELIGIPEDQRLQRTEVVKKHIKELLDMMIAEEESLKERLIKSISVCQKELNTLCSELHVEPFQEEGETTILQLEKDLRTQVELMRKQKKERKQELKLLQEQDQELCEILCMPHYDIDSASVPSLEELNQFRQHVTTLRETKASRREEFVSIKRQIILCMEALDHTPDTSFERDVVCEDEDAFCLSLENIATLQKLLRQLEMQKSQNEAVCEGLRTQIRELWDRLQIPEEEREAVATIMSGSKAKVRKALQLEVDRLEELKMQNMKKVIEAIRVELVQYWDQCFYSQEQRQAFAPFCAEDYTESLLQLHDAEIVRLKNYYEVHKELFEGVQKWEETWRLFLEFERKASDPNRFTNRGGNLLKEEKQRAKLQKMLPKLEEELKARIELWEQEHSKAFMVNGQKFMEYVAEQWEMHRLEKERAKQERQLKNKKQTETEMLYGSAPRTPSKRRGLAPNTPGKAR
B4 had a Kd in assay [1] of 300 ± 30 nM.

B5: PRC1ΔN2SΔC (human PRC1, aa 41-486) (domain or fragment, UniProt O43663 41-486, looked up)
chain: EVVKKHIKELLDMMIAEEESLKERLIKSISVCQKELNTLCSELHVEPFQEEGETTILQLEKDLRTQVELMRKQKKERKQELKLLQEQDQELCEILCMPHYDIDSASVPSLEELNQFRQHVTTLRETKASRREEFVSIKRQIILCMEALDHTPDTSFERDVVCEDEDAFCLSLENIATLQKLLRQLEMQKSQNEAVCEGLRTQIRELWDRLQIPEEEREAVATIMSGSKAKVRKALQLEVDRLEELKMQNMKKVIEAIRVELVQYWDQCFYSQEQRQAFAPFCAEDYTESLLQLHDAEIVRLKNYYEVHKELFEGVQKWEETWRLFLEFERKASDPNRFTNRGGNLLKEEKQRAKLQKMLPKLEEELKARIELWEQEHSKAFMVNGQKFMEYVAEQWEMHRLEKERAKQERQLKNKKQTETEMLYGSAPRTPSKRRGLAPNTPGKAR
In the case of B5, the Kd in assay [1] is 1600 ± 110 nM.

B6: PRC1NSΔC5 (human PRC1, aa 1-303) (domain or fragment, UniProt O43663 1-303, looked up)
chain: MRRSEVLAEESIVCLQKALNHLREIWELIGIPEDQRLQRTEVVKKHIKELLDMMIAEEESLKERLIKSISVCQKELNTLCSELHVEPFQEEGETTILQLEKDLRTQVELMRKQKKERKQELKLLQEQDQELCEILCMPHYDIDSASVPSLEELNQFRQHVTTLRETKASRREEFVSIKRQIILCMEALDHTPDTSFERDVVCEDEDAFCLSLENIATLQKLLRQLEMQKSQNEAVCEGLRTQIRELWDRLQIPEEEREAVATIMSGSKAKVRKALQLEVDRLEELKMQNMKKVIEAIRVELVQ
B6 showed a Kd in assay [1] of 300 ± 60 nM.

B7: PRC1NSΔC2 (human PRC1, aa 1-117) (domain or fragment, UniProt O43663 1-117, looked up)
chain: MRRSEVLAEESIVCLQKALNHLREIWELIGIPEDQRLQRTEVVKKHIKELLDMMIAEEESLKERLIKSISVCQKELNTLCSELHVEPFQEEGETTILQLEKDLRTQVELMRKQKKER
The molecule B7 displayed a Kd in assay [1] of 2300 ± 600 nM.

B8: GFP-PRC1 (human full-length PRC1, aa 1-620, GFP-labeled) (natural protein, UniProt O43663 1-620, looked up)
chain: MRRSEVLAEESIVCLQKALNHLREIWELIGIPEDQRLQRTEVVKKHIKELLDMMIAEEESLKERLIKSISVCQKELNTLCSELHVEPFQEEGETTILQLEKDLRTQVELMRKQKKERKQELKLLQEQDQELCEILCMPHYDIDSASVPSLEELNQFRQHVTTLRETKASRREEFVSIKRQIILCMEALDHTPDTSFERDVVCEDEDAFCLSLENIATLQKLLRQLEMQKSQNEAVCEGLRTQIRELWDRLQIPEEEREAVATIMSGSKAKVRKALQLEVDRLEELKMQNMKKVIEAIRVELVQYWDQCFYSQEQRQAFAPFCAEDYTESLLQLHDAEIVRLKNYYEVHKELFEGVQKWEETWRLFLEFERKASDPNRFTNRGGNLLKEEKQRAKLQKMLPKLEEELKARIELWEQEHSKAFMVNGQKFMEYVAEQWEMHRLEKERAKQERQLKNKKQTETEMLYGSAPRTPSKRRGLAPNTPGKARKLNTTTMSNATANSSIRPIFGGTVYHSPVSRLPPSGSKPVAASTCSGKKTPRTGRHGANKENLELNGSILSGGYPGSAPLQRNFSINSVASTYSEFAKDPSLSDSSTVGLQRELSKASKSDATSGILNSTNIQS
Regarding B8, the binding result in assay [3] is listed as “binds”.
